# Target: Andes virus Gc, wild type (Andes virus strain CHI-7913)
# Test: sucrose gradient sedimentation
substance,measurement,value
"Andes virus Gc, wild type (natural protein)",stoichiometry N,3

# Source: PMC5082683
